Data: US20120214165A1

Target: Epithelial cell adhesion molecule (EpCAM) (human) (UniProt P16422)
Experiment: cell-based or functional assay

Sequence of UniProt P16422 (P16422 24-314 M115T limits assumed): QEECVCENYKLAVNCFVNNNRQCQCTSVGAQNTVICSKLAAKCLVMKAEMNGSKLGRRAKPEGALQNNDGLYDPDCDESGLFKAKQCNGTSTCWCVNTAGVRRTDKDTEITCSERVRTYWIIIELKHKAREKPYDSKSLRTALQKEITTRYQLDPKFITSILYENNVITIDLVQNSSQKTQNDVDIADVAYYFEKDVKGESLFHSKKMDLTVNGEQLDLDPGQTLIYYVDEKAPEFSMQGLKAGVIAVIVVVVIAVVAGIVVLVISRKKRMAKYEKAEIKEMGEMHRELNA

VB4-845 immunotoxin (from UniProt P11439 277-633)
IC50 of inhibition of proliferation, MTT based cell viability assay, ARO cells: 0.7 pM
IC50 of inhibition of proliferation, MTT based cell viability assay, WRO cells: 1 pM
